The values that follow come from the supplement of paper PMC9170038.

The data set concerns MS2 coat protein. Briefly: apparent KD of MS2 coat protein; designed switch direction (-1 OFF switch, 1 ON switch): 1; higher = weaker reporter binding. The method, boiled down: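 Transcription of designed RNA switches on Illumina chips was done by stalled E. coli RNA polymerase. SNAP-549-labelled MS2 coat protein was then titrated in doubling steps from 0.7 or 1.5 nM to 3 µM, with steps of 0.8–1.5 h at the lowest and 10–20 min at the highest concentration. The per-design median over clusters of curve-fitted normalised fluorescence is reported as apparent KD.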

The mark [1] stands for this setting: input ligand: microRNA oligo, concentration not stated.
Setting [2] is: Eterna round: R95, input ligand: FMN 200 uM.
[3] abbreviates: Eterna round: R95, input ligand: microRNA oligo, concentration not stated.
Where [4] appears, read: Eterna round: R95, input ligand: none.

Consider “GGUAGGUUACUACCAAACAUGAGGAUCACCCAUGUAAGUGGGAAGGAUAUGGUACCUAUUUGGUACCAGAAGGUCUAAUUAAUU [Fiskers NG3ss - 2] (Eterna round: R96, puzzle: Same State NG 3)”, for which the “apparent KD of MS2 coat protein” value is, setting by setting: (input ligand: FMN 200 uM) 444 nM; under setting [1], 59.9 nM; (input ligand: none) 1230 nM.
“GGAGCCGGCACCGAGGAUAUUCAUAUUAAAACAUGAGGAUCACCCAUGUACAGGAGAACCUGUUGGGAGAAGGCGGAUCGGCUCG [Xeonanis - 25] (puzzle: Same State 2)”: the “apparent KD of MS2 coat protein” value turned out to be 29.9 nM under setting [2], 296 nM under setting [3] and 437 nM under setting [4].
With “GUAGCAUACCGAGGAUAUUCAUAACCGAAAGGAACAUGAGGAUCACCCAUGUGGCGAAAGCCUUGGGAGAAGGCGGAAUGCUAC [Xeonanis - 20 Mod74] (Eterna round: R96, puzzle: Same State NG 2)”, the “apparent KD of MS2 coat protein” value turned out to be 42.8 nM (input ligand: FMN 200 uM), 291 nM under setting [1] and 957 nM (input ligand: none).
Turning to “GUAUCUUCAGGUUGCAAUGCUCGUCGGAUACAUGAGGAUCACCCAUGUUAUUAACCUGUGCUUGCGCGGGUAUGAUU [Photon Torp-01] (puzzle: Sensor for hsa-mir-208a)”, the “apparent KD of MS2 coat protein” value worked out at 21.8 nM under setting [2], 32.5 nM under setting [3] and 23.3 nM under setting [4].
As for “UGGCUCAGACUAGGAUAUACGUGGUCACAUGAGGAUCACCCAUGUCUCGAGCUUCGGCUCGAGGCGUAGAAGGAGUCUGAGCCU [SSNG2/6-D3] (Eterna round: R96, puzzle: Same State NG 2)”, the “apparent KD of MS2 coat protein” value turned out to be 126 nM (input ligand: FMN 200 uM), 245 nM under setting [1] and 334 nM (input ligand: none).
“GCCCGUAGCCACAUGAGGAUCACCCAUGUGCAGUUGUGAUCCGAGGAUAUUGCUAUUUGAGAUAGUAAGAAGGUGGACCGCGGU [Eternabot solution 31] (Eterna round: R96, puzzle: Same State NG 3)”: the “apparent KD of MS2 coat protein” value by setting is: (input ligand: FMN 200 uM) 109 nM; under setting [1], 84.4 nM; (input ligand: none) 143 nM.
“CUACGAGCGCCACAGGAUAUACUGAGACUCACAUGAGGAUCACCCAUGUCCAAUUCUCCCAAAUAGUAGAAGGGUGACGCGCUCA [Soordire] (puzzle: Same State 2)”: the “apparent KD of MS2 coat protein” value was determined as 51.1 nM under setting [2], 565 nM under setting [3] and 546 nM under setting [4].
Regarding “AUAUGAGAAGCAGGAUAUGUGGAGAAGAAACAAACAGAAGGGCUUAUGGGACAACAUGAGGAUCACCCAUGUUCUCUGUGAUGA [ssng1 a] (Eterna round: R96, puzzle: Same State NG 1)”, the “apparent KD of MS2 coat protein” value (input ligand: FMN 200 uM) worked out at 47.9 nM, the “apparent KD of MS2 coat protein” value under setting [1] amounted to 137 nM and the “apparent KD of MS2 coat protein” value (input ligand: none) was 240 nM.
For “AUAACACUGGCAGGAUAUGGGAUUGGAAGUGUUCCAGAAGGGCCAGAACGGCGAUGGACAUGAGGAUCACCCAUGUCUUAGCCU [MOD Powerstrip SSNG 1.4 (Unstable)] (Eterna round: R96, puzzle: Same State NG 1)”, the “apparent KD of MS2 coat protein” value by setting is: (input ligand: FMN 200 uM) 13 nM; under setting [1], 7.66 nM; (input ligand: none) 9.48 nM.
As to “AUUUAACAAGCUUUUUGCUCGUCUUAUAAACAUGAGGAUCACCCAUGUAAUAGCGUGAGAGUAAAUUUUUAAAUAAU [JMF 95] (puzzle: Sensor for hsa-mir-208a)”, the “apparent KD of MS2 coat protein” value is 14.5 nM under setting [2], 38.9 nM under setting [3] and 14.8 nM under setting [4].
As to “GCUAGAAUAAAUGCCUACAUGAGGAUCACCCAUGUAUGUAGGCAGGAUAUCGUAUGCAAAGCAUACGAGAAGGGCCUUACUAGC [Mat - Same State NG 3 - JL Mod - D30] (Eterna round: R96, puzzle: Same State NG 3)”, the “apparent KD of MS2 coat protein” value (input ligand: FMN 200 uM) is 22.7 nM, the “apparent KD of MS2 coat protein” value under setting [1] was found to be 55.4 nM and the “apparent KD of MS2 coat protein” value (input ligand: none) stood at 85.2 nM.
In the case of “UAAUUAAGUCAAGGAUAUCACGUCGUUUAGACGUGAGAAGGUGACCAAUACAUGAGGAUCACCCAUGUAAUACAUGAAUAAUUA [SSNG1/12-B3] (Eterna round: R96, puzzle: Same State NG 1)”, the “apparent KD of MS2 coat protein” value by setting is: (input ligand: FMN 200 uM) 35.5 nM; under setting [1], 46.9 nM; (input ligand: none) 51.4 nM.
On the same counts, the results for “GUACAAAUCAUAGGAUAUGGGCGGGAAUGCCGUCCAGAAGGAUGAACAUGAGGAUCACCCAUGUCCGGCCGCAAAUACGCGGCC [Xexeti] (Eterna round: R96, puzzle: Same State NG 1)” are 62.6 nM, 140 nM and 209 nM.
On the same counts, the results for “CUGAGCGAUCAAGGAUAUCACGUCGAAUAGACGUGAGAAGGUGAUAAUUACAUGAGGAUCACCCAUGUAUAACAUGAAGCUCAG [SSNG1/9-A1] (Eterna round: R96, puzzle: Same State NG 1)” are 16.6 nM, 15.6 nM and 22.4 nM.
Consider “CAGCACUGUCGAGAGGAUAUGCGGUGAUGGACAUGAGGAUCACCCAUGUUAGCGACAGCAUCACGGCAGAAGGCUCUACUGUUGC [Soteed Omei mod 34] (puzzle: Same State 2)”, for which the “apparent KD of MS2 coat protein” value was found to be 12.6 nM under setting [2], 12.2 nM under setting [3] and 14.3 nM under setting [4].
As to “UCCUUGUGGGUAGGAUAUUUAGGAUAUGCGGAAGACUAAGUCUGUAGGUCACCUAACGCAGAAGGAGAGAAGGACCCUUCAGCA [pwkr ssNG2 2FMN + F9.32] (Eterna round: R96, puzzle: Same State NG 2)”, the “apparent KD of MS2 coat protein” value by setting is: (input ligand: FMN 200 uM) 284 nM; under setting [1], 87.9 nM; (input ligand: none) 309 nM.
The like results for “AAGGGCGGAAACGACAUGAGGAUCACCCAUGUUGCCGAAAGGCAGGAUAUCCGGCGAAAGCAGAAGGAGAAGGGUCAAGAACCA [AK SSNG3-V2-43] (Eterna round: R96, puzzle: Same State NG 3)” were, in that order, 38.9 nM, 24.7 nM and 43.8 nM.
Consider “AUAAGAAACACAGGAUAUACCGUGCUUAACGCGGUAGAAGGGUGGGACAUGAGGAUCACCCAUGUGGUCCGGGCGCCGGACCGC [Erarlaa] (Eterna round: R96, puzzle: Same State NG 1)”, for which the “apparent KD of MS2 coat protein” value reads like this: (input ligand: FMN 200 uM) 934 nM; under setting [1], 296 nM; (input ligand: none) 309 nM.
As to “AGCUAUUACGAAGGAUAUUGUGACAUGAGGAUCACCCAUGUUUUCAUGAUUAAUUGUGAUCACGUCGAGAAGGUUGUACUAACA [SameState NG2 #30] (Eterna round: R96, puzzle: Same State NG 2)”, under setting [1], the “apparent KD of MS2 coat protein” value was 43 nM.
For “UAAAUAAAGUAAGGAUAUACAUGAGGAUCUCUCGUAGAAGGUACUAUACAUGAGGAUCACCCAUGUGCCGGUCAAUAGACUGGA [Mat - Same State NG 1 - JL mod - D9] (Eterna round: R96, puzzle: Same State NG 1)”, the “apparent KD of MS2 coat protein” value runs as follows: (input ligand: FMN 200 uM) 589 nM; under setting [1], 131 nM; (input ligand: none) 446 nM.
The like results for “UUGCGGGCUUGAGGAUAUUGAGUACAUAUGUUUAACAUGAGGAUCACCCAUGUGGGUUGCGGUAUCGAGAAGGUAACUUCCUAC [salish99_SSNG2_r04_808] (Eterna round: R96, puzzle: Same State NG 2)” were, in that order, 169 nM, 92.5 nM and 153 nM.
On the same counts, the results for “UGUUGUUAAUUAGGAUAUGGGCACAUGAGGAUCACCCAUGUAUUUUCGAUGCUAUGUGGAGACGUCUAGAAGGAAUGGCUAACA [SameState NG2 #89] (Eterna round: R96, puzzle: Same State NG 2)” are 205 nM, 212 nM and 219 nM.
For the sequence “UGGCAACAUGAGGAUCACCCAUGUCAAACUAAUCGAGGAUAUGGGAACUAACAACACAAACUAGAAGGCGAACUUG [Altered State 1-10 - Jieux - Same State 1] (puzzle: Same State 1)”, the “apparent KD of MS2 coat protein” value runs as follows: under setting [2], 74.9 nM; under setting [3], 32 nM; under setting [4], 38.3 nM.
For the sequence “GAGUAGUUGAAAGGAUAUCCAUUGUUAUAGAAUGGAGAAGGUUCUAACAUGAGGAUCACCCAUGUAGGACUAUUCCUGUGUAUC [Parity 81 - Jieux - Same State NG 1] (Eterna round: R96, puzzle: Same State NG 1)”, the “apparent KD of MS2 coat protein” value is, setting by setting: (input ligand: FMN 200 uM) 9.98 nM; under setting [1], 8.16 nM; (input ligand: none) 11.9 nM.
On the same counts, the results for “UAGCUCGUGUGAGGAUAUGCCGCCGUUUCGGCUGCAGAAGGUGCUACGUUACAUGAGGAUCACCCAUGUCUCUGUUGUUUCGUU [salish99_SSNG1_r04_956] (Eterna round: R96, puzzle: Same State NG 1)” are 21.5 nM, 17.5 nM and 23.1 nM.
On the same counts, the results for “AGGCCACCGGGAGGAUAUGGCACCUAUAUGGUGCCAGAAGGCUCAACAUGAGGAUCACCCAUGUGGGUGGGUUCUAAUGAACAA [Fiskers NG1 - 1] (Eterna round: R96, puzzle: Same State NG 1)” are 69.1 nM, 41.7 nM and 46.7 nM.
For the sequence “UGACACACGGCAGGAUAUCGAUUGCAAAGCAAUCGAGAAGGGCCUCAUGUCGUGGAAACGUGACAUGAGGAUCACCCAUGUCGC [Omei SS(NG)1 Cv13] (Eterna round: R96, puzzle: Same State NG 1)”, the “apparent KD of MS2 coat protein” value came out at 53.1 nM (input ligand: FMN 200 uM), 11.6 nM under setting [1] and 24 nM (input ligand: none).
